Here are results for 2 molecules from patent US20170355781A1 (CCAM BIOTHERAPEUTICS, published 2017).

The target of test [1] is T1, human CEACAM1 on cells (human, UniProt P13688 35-526).
T1 construct: whole, on cells; Used for endogenous CEACAM1 (526mel, Malme 3M, SKmel5, G361, NK 92MI, primary cells) and for 721.221 transfectants; also called hCEACAM1
T1 sequence (looked up): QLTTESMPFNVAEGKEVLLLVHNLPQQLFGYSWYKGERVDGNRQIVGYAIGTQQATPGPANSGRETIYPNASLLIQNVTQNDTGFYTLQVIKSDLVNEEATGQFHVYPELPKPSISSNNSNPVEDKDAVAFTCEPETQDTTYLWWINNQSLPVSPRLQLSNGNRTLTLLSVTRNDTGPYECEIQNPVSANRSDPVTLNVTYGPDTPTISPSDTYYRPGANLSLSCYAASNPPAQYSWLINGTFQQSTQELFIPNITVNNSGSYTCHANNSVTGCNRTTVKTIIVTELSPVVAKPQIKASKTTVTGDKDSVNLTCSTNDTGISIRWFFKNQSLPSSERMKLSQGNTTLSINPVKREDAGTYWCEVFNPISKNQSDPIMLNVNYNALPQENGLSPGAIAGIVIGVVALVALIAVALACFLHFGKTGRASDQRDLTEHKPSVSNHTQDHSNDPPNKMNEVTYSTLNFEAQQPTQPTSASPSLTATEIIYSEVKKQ

The target in test [2] is T1, human CEACAM1 on cells. Description: blocking assay by FACS: SKMEL5 cells (CEACAM1 positive) pre-incubated with CM10 and washed, then soluble biotinylated CEACAM5 detected with streptavidin-APC. On the procedure:
CEACAM1 positive cell line (SKMel 5) was incubated with an isotype control or CM10 in various concentrations, unbound CM10 was washed twice, followed by incubation with or without soluble biotinylated CEACAM5. The binding of the biotinylated CEACAM5 to the cells was detected by a secondary strepavidin-APC and FACS analysis. The results represent the mean of duplicate wells±SE. Similar results were obtained in two other independent experiments.

For test [3], the target named is T2, CEACAM4 transiently expressed on HEK 293T cells (human, UniProt O75871 36-244).
T2 construct: whole, on cells
T2 sequence (looked up): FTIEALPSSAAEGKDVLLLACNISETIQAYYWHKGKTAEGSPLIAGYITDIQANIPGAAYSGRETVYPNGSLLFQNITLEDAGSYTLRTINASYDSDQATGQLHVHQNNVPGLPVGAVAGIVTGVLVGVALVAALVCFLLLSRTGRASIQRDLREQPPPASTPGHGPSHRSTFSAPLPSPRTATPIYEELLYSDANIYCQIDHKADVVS
Description: flow cytometry, biotinylated CM10 plus Strep-Avidin APC on HEK 293T cells transiently expressing CEACAM-4. The procedure:
A standard FACS protocol was used with CM10 conjugated to a Biotin molecule and Strep-Avidin APC as secondary agent. […] Empty histograms represent mAb staining while red histograms represent background staining. At least 10000 cells were used to analyze CM10 binding in each histogram. FAB was calculated by dividing the MFI of the stained cells in the MFI of the background staining.
In general terms: A flow cytometer gives signals particle by particle.

The target of test [4] is T3, recombinant purified human CEACAM1 (human, UniProt P13688 35-428, limits assumed).
T3 construct: also called purified hCEACAM1; Recombinant CEACAM1
T3 sequence (looked up): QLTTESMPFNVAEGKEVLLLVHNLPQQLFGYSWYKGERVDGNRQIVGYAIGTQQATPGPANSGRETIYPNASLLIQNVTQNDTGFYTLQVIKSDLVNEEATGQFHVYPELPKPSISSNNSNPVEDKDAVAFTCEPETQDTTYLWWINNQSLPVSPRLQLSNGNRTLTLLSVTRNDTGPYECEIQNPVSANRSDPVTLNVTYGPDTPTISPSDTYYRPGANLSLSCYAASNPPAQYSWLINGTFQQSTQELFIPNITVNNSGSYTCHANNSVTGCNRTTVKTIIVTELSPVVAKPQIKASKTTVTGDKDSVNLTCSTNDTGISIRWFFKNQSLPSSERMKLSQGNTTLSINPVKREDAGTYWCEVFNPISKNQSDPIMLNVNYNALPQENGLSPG
Description: SPR, Biacore 3000, antibody immobilized on CM5 chip, recombinant CEACAM1 flowed; three independent experiments. The procedure: (§1) Each antibody was immobilized onto a single channel of a CM5 sensor chip of Biacore3000 instrument by NHS-EDC coupling chemistry.
(§2) Recombinant CEACAM1 was flowed at 50 μl/min over the chip in various concentrations (0.19, 0.39, 0.78, 1.56, 3.12, 6.25, 12.5 and 25 nM). The running buffer was PBS-ET (10 mM p-buffer pH7.4, 150 mM NaCl, 3.4 mM EDTA and 0.005% tween 20).
In general terms: SPR reads the build-up and loss of mass on a sensor chip optically.

The target in test [5] is T3, recombinant purified human CEACAM1. Description: indirect ELISA on plate-bound purified human CEACAM1, double dilutions of CM10. The procedure:
The binding specificity of CM10 to human CEACAM1 was tested in ELISA assay using purified human CEACAM1. Indirect ELISA using 23 double dilutions of CM10 were used to generate specific binding curve. The results shown in FIG. 2 represent average O.D. from triplicate±SE. Similar results were obtain from other ten independent experiments.
For orientation: ELISA stands for enzyme-linked immunosorbent assay.

Test [6] shares this target. Description: SPR, Biacore 3000, antibody immobilized on CM5 chip, recombinant CEACAM1 flowed; average of three independent experiments. The procedure:
as §1, §2

For test [7], the target named is chimeric molecule composed of the extracellular portion of human CEACAM1 fused to mouse z-chain, on BW cells (human; mouse, UniProt P13688 35-428; P24161 31-164). Description: cell-based or functional assay.

For orientation: Kd means the free concentration of one partner at which half of the binding sites on the other are occupied at equilibrium, for simple one-to-one binding. By EC50 (read off the curve) is commonly meant the concentration giving half of the maximal effect.

As to “chimeric molecule composed of the extracellular portion of human CEACAM1 fused to mouse z-chain, on BW cells (from UniProt P13688 35-428; P24161 31-164) (receptor)”, the mouse IL-2 secretion (ELISA), BW/221+ co-culture, no CM10 in the test with human CEACAM1 on cells [1] was 289 pg/mL.

B1: chimeric monoclonal antibody CM10 (antibody, human IgG1, kappa, V domains shown)
VH: QVQLQQSGAELVRPGTSVKVSCKASGYAFTNNLIEWVKQRPGQGLEWIGVINPGSGDTNYNEKFKGKATLTADKSSNTAYMQLSSLTSDDSAVYFCARGDYYGGFAVDYWGQGTSVTVSS
VL: DIQMTQTTSSLSASLGDRVTISCRTSQDIGNYLNWYQQKPDGTVKLLIYYTSRLHSGVPSRFSGSGSGTDYSLTISNLEQEDIATYFCQQGKSLPRTFGGGTKLEIKR
notes: made in CHO cells; PE-conjugated CM10 was used for the QuantiBRITE count; also called CM10.S91; anti CEACAM1 mAb, CM10
Consider B1, for which, in the test with human CEACAM1 on cells [2], the “IC50 (read off the curve)” value was approximately 100 ng/mL. The binding result in test [3] is “no binding (tested: 1 µg/ml)”. Besides, the Kd in test [4] was 4.07 to 5.05 nM; in test [6] it was 4.56 nM. In test [5], the concentration giving a half-maximal response (EC50 (read off the curve)) was approximately 10 ng/mL. Besides, the “IC50 (read off the curve) of the block of mouse IL-2 secretion in the BW/221+ co-culture” value in test [7] is approximately 10 ng/mL.
